{"source": "patent US20230363418A1", "about": "“COMPOSITION FOR PREVENTING OR TREATING NEUROPSYCHOLOGIC DISEASE, COMPRISING MANF” (CEFO CO., LTD., priority 2020, published 2023)", "molecules": {"B1": {"name": "MANF: one of 16 or more growth factors secreted into nerve stem cells by cerebrovascular cells; amino acid sequence of SEQ ID NO: 1 (protein)", "chain": "MRRMWATQGLAVALALSVLPGSRALRPGDCEVCISYLGRFYQDLKDRDVTFSPATIENELIKFCREARGKENRLCYYIGATDDAATKIINEVSKPLAHHIPVEKICEKLKKKDSQICELKYDKQIDLSTVDLKKLRVKELKKILDDWGETCKGCAEKSDYIRKINELMPKYAPKAASARTDL", "modifications": "MANF"}}, "key": {"[1]": {"tested_on": "primary cultured neural progenitor cells", "test": "Immunofluorescence staining of Ki67, Nestin, TuJ1 and NeuN in primary cultured neural progenitor cells", "type": "cell-based, rat", "conditions": "MANF 30 ng/ml, compared to the control group", "procedure": "To investigate whether or not MANF promotes proliferation of neural progenitor cells, the primary cultured neural progenitor cells are treated with MANF, and then proliferating cells were fluorescently stained with Ki67 antibody, neural progenitor cells with Nestin antibody, immature nerve cells with TuJ1, and mature neural cells with NeuN antibody.\nSpecifically, the neural progenitor cells were cultured in the same manner as in Example 1, and after removing all the mediums, they were washed once with PBS. After being fixed for 15 minutes with 4% PFA (paraformaldehyde) in PBS, they were washed twice with PBS again. After washing the cover slip to which the cells were attached with PBST, 0.5% Triton X-100-PBST was added thereto and reacted for 10 minutes. Again, blocking was performed with 2% BSA in PBST or 5% normal serum (Normal donkey serum: Jackson lab, 017-000-121, Normal horse serum: Sigma, H0146); and as primary antibodies, rb-Ki67(Abcam, AB15580, 1:500), mo-NeuN(Millipore, MAB377B, 1:500), mo-Tuj1(Sigma, T8660, 1:3000), mo-Flag(Sigma, F1804, 1:500), and mo-Nestin(Millipore, MAB353, 1:200) were added to 2% BSA in PBS and reacted overnight at 4° C. The next day, they were washed with PBST, and then, as secondary antibodies, mo-Alexa 488(Invitrogen, A21202, 1:700), mo-Cy3(Jackson lab, 715-165-151, 1:500), and rb-Alexa 488(Jackson lab, 711-546-152, 1:700) were added to PBST and reacted at room temperature for 1 hour. Cell nuclei were stained with DAPI (1 µg/mL, Sigma), mounted on slides, scanned with a confocal laser microscope, and photographed. Heo SR et al.(2009) and Han AM t al.(2012) were referred to in the above method.\nIn the case of cell count confirmation and data analysis, the number of cell nuclei labeled with DAPI and the number of cells stained with each differentiation marker were counted, respectively, and the number of each differentiation marker was expressed as a percentage of the number of cell nuclei. In this case, the number of cells that matched exactly in shape and location and had the shape of a nerve cell was counted. For example, in NeuN cell count measurement, the number of cells with a round shape in a nucleus and overlapping staining with DAPI was counted, and nonspecific signals appearing at the edge of the slide were not included. In data analysis, the control group and the experimental group were compared through one-way analysis of variance (ANOVA). The statistical significance of the data was set as p<0.05."}, "[2]": {"tested_on": "IBO-administered memory impairment and autism model", "test": "Passive avoidance test", "type": "in vivo, rat", "conditions": "MANF-AAV-hMSC transplanted into the hippocampus of IBO rats", "procedure": "Memory impairment and autism models were prepared by administering IBO to the entorhinal cortex of the rats, wherein the IBO destroys granule cells of the dentate gyrus (DG) and pyramidal cells of the hippocampus, which receive nerve signals input from the entorhinal cortex. Specifically, the rats were anesthetized with equitensin (10% ethanol containing 350 mM pentobarbital sodium, 250 mM chloral hydrate, 85 mM MgSO and 40% propylene glycol). The incisor bar of a stereotaxic device (Stoelting Co., U.S.A.) was placed 3.4 mm below the interaural line, and the injection needle angle was fixed at […] right from the center of the sagittal plane. 1.5 ul of IBO (1 mg/ml) was injected into the entorhinal cortex of the rat using the stereotaxic device. The IBO was injected into three locations of first, AP: -8.4, ML: -4.8, DV: -4.6; Second, AP; -8.4, ML: -4.8, DV: […]; Third, AP: -8.8, ML: - 3.65, DV: -3.4 (FIG. 7). […]\nIt was performed according to the method described in Heo Het al. (2009) for the same number of rats as in each group of Example 6-1. […] Exactly 24 hours after the adaptation training, the rats were placed in the bright room again, and the latency time to enter the dark room was measured for 720 seconds (confinement experiment)."}, "[3]": {"tested_on": "IBO-administered memory impairment and autism model", "test": "Open space behavior test (anxiety behavior)", "type": "in vivo, rat", "procedure": "Memory impairment and autism models were prepared by administering IBO to the entorhinal cortex of the rats, wherein the IBO destroys granule cells of the dentate gyrus (DG) and pyramidal cells of the hippocampus, which receive nerve signals input from the entorhinal cortex. Specifically, the rats were anesthetized with equitensin (10% ethanol containing 350 mM pentobarbital sodium, 250 mM chloral hydrate, 85 mM MgSO and 40% propylene glycol). The incisor bar of a stereotaxic device (Stoelting Co., U.S.A.) was placed 3.4 mm below the interaural line, and the injection needle angle was fixed at […] right from the center of the sagittal plane. 1.5 ul of IBO (1 mg/ml) was injected into the entorhinal cortex of the rat using the stereotaxic device. The IBO was injected into three locations of first, AP: -8.4, ML: -4.8, DV: -4.6; Second, AP; -8.4, ML: -4.8, DV: […]; Third, AP: -8.8, ML: - 3.65, DV: -3.4 (FIG. 7).\nAfter 2-3 IBO injections, each group was randomly classified into an IBO-administrated group (negative control group), and a GFP-AAV-hMSC-administrated group (GFP-AAV) and a MANF-AAV-hMSC-administrated group […] as a control group. A rest period of one week was provided. […]"}}}
{"molecule": "B1", "values": [{"measurement": "Ki67-stained proliferating cells", "setting": "[1]", "value": "significantly increased"}, {"measurement": "immature neural cells (TuJ1)", "setting": "[1]", "value": "also increased, but there was no statistical significance"}, {"measurement": "mature neural cells (NeuN)", "setting": "[1]", "value": "also increased, but there was no statistical significance"}, {"measurement": "nestin-stained neural progenitor cells", "setting": "[1]", "value": "significantly increased"}, {"measurement": "memory ability in passive avoidance test", "setting": "[2]", "value": "memory improvement"}, {"measurement": "time in the center", "setting": "[3]; compared to the IBO group", "value": "significantly increased"}, {"measurement": "time in the center", "setting": "[3]; compared to the MSC group", "value": "also increased"}]}
